In patent publication US20210403565A1 (BIOATLA, published 2021):

T1: recombinant human CTLA4 extracellular domain (human, UniProt P16410 36-161)
T1 construct: extracellular domain; also called huCTLA-4
T1 sequence (looked up): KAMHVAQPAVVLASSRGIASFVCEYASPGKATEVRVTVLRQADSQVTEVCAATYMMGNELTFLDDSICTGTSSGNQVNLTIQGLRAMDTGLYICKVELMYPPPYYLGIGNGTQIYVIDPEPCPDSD

T2: human CTLA4 expressed on the cell surface of CHO cells (human, UniProt P16410 36-223)
T2 construct: whole, on cells; also called CHO-huCTLA4; huCTLA4
T2 sequence (looked up): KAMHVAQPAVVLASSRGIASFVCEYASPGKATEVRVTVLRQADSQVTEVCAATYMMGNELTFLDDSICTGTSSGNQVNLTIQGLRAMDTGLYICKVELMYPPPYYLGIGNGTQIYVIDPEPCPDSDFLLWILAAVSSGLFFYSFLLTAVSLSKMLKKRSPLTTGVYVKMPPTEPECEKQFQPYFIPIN


How the values were obtained:
[1] = biological target: T1, recombinant human CTLA4 extracellular …; test: ELISA, wells coated with human CTLA4, assay pH 6.0; lot 6978 in Tris buffer, T0; unit from the axis Log[ng/mL]
Procedure: (§1) Both ELISA and FACS analysis were used to measure the binding activity. […] The amount of bound antibodies was quantified using anti-human IgG antibody conjugated to HRP. The absorbance at 450 nm in each measurement was proportional to the amount of antibodies bound. […] EC50 value (in ng/mL) for binding to human CTLA4 was determined by absorbance at 450 nm against antibody concentration with Prism variable slope of four-parameter dose-response curve, which was calculated using the nonlinear fit (variable slope, four parameters) model built into GraphPad Prism software (version 7.03). The buffers tested included His buffer (His), Tris buffer (Tris), Glutamine buffer (Glu) and no buffer.

[2] = biological target: T2, human CTLA4 expressed on the cell …; test: FACS, cells expressing human CTLA4, assay pH 6.0, MFI; lot 6978 in Glu buffer, T0; unit from the axis Log[ng/mL]
Procedure: (§2) The amount of bound antibodies was quantified using anti-human IgG antibody conjugated to fluorophores. The MFI in each reaction was proportional to the amount of antibodies bound. The EC₅₀ value (in ng/mL) for binding to human CTLA4 on cells was determined by MFI of the singlets population against antibody concentration with a Prism variable slope of four-parameter dose-response curve, which was calculated using the nonlinear fit (variable slope, four parameters) model built into GraphPad Prism software (version 7.03).

[3] = biological target: T2, human CTLA4 expressed on the cell …; test: FACS, cells expressing human CTLA4, assay pH 7.4, MFI; lot 6978 in Tris buffer, T0; unit from the axis Log[ng/mL]
Procedure: as §2

[4] = biological target: T1, recombinant human CTLA4 extracellular …; test: ELISA, wells coated with human CTLA4, assay pH 6.0; lot 6978 in Glu buffer, T0; unit from the axis Log[ng/mL]
Procedure: as §1

[5] = biological target: T1, recombinant human CTLA4 extracellular …; test: ELISA, wells coated with human CTLA4, assay pH 7.4; lot 6978 in His buffer, T0; curve still rising at log 3 (OD450 below 0.2), no plateau; unit from the axis Log[ng/mL]
Procedure: as §1

[6] = biological target: T1, recombinant human CTLA4 extracellular …; test: ELISA, immobilised huCTLA-4, table head pH 7.0 (text: pH 7.4), Jul. 11, 2017
[7] = biological target: T1, recombinant human CTLA4 extracellular …; test: ELISA, wells coated with human CTLA4, assay pH 6.0; lot 6972 in Glu buffer, T0; unit from the axis Log[ng/mL]
Procedure: as §1

[8] = biological target: T1, recombinant human CTLA4 extracellular …; test: ELISA, wells coated with human CTLA4, assay pH 6.0; lot 6972 in Tris buffer, T0; unit from the axis Log[ng/mL]
Procedure: as §1

[9] = biological target: T2, human CTLA4 expressed on the cell …; test: FACS, cells expressing human CTLA4, assay pH 7.4, MFI; lot 6972 in Tris buffer, T2W; unit from the axis Log[ng/mL]
Procedure: as §2

[10] = biological target: T2, human CTLA4 expressed on the cell …; test: FACS, cells expressing human CTLA4, assay pH 6.0, MFI; lot 6972 control without test buffer; same column repeated in FIG. 10B and FIG. 10C; unit from the axis Log[ng/mL]
Procedure: as §2

[11] = biological target: T2, human CTLA4 expressed on the cell …; test: FACS, cells expressing human CTLA4, assay pH 7.4, MFI; lot 6972 in Glu buffer, T0; unit from the axis Log[ng/mL]
Procedure: as §2

[12] = biological target: T1, recombinant human CTLA4 extracellular …; test: ELISA, wells coated with human CTLA4, assay pH 6.0; lot 6972 in His buffer, T0; unit from the axis Log[ng/mL]
Procedure: as §1

[13] = biological target: T2, human CTLA4 expressed on the cell …; test: FACS, cells expressing human CTLA4, assay pH 6.0, MFI; lot 6972 in Tris buffer, T2W; unit from the axis Log[ng/mL]
Procedure: as §2

[14] = biological target: T1, recombinant human CTLA4 extracellular …; test: ELISA, wells coated with human CTLA4, assay pH 7.4; lot 6972 without test buffer; same column repeated in FIG. 9B and FIG. 9C; unit from the axis Log[ng/mL]
Procedure: as §1

[15] = biological target: T2, human CTLA4 expressed on the cell …; test: FACS, cells expressing human CTLA4, assay pH 7.4, MFI; lot 6972 in His buffer, T2W; unit from the axis Log[ng/mL]
Procedure: as §2

EC50 [1] [µg/mL] | EC50 [2] [µg/mL] | EC50 [3] [µg/mL] | EC50 [4] [µg/mL] | EC50 [5] [µg/mL] | EC50 [6] [µg/mL] | EC50 [7] [µg/mL] | EC50 [8] [µg/mL] | EC50 [9] [µg/mL] | EC50 [10] [µg/mL] | EC50 [11] [µg/mL] | EC50 [12] [µg/mL] | EC50 [13] [µg/mL] | EC50 [14] [µg/mL] | EC50 [15] [µg/mL] | Binder
0.0171 | ~0.15 | 1.26 | 0.0337 | 0.491 | – | – | – | – | – | – | – | – | – | – | BA-087-08-32 (antibody, V domains shown, Detected with anti-human IgG and a molecular weight of 146 kDa was used in SPR, so it was tested as a whole IgG; also called BA-087-08-032; BA-087-08-32 (# 6978)) VH: EVQLVQSGAEVKKPGATVKISCKVSGFTFSHYTMHWIRQSPSRGLEWLGFISYDGNYKYYADSVKGRFTISRDNAKNSLYLQMNSLRAEDTAVYYCARTGWLGPFDYWGQGTLVTVSS VL: EIVMTQSPATLSVSPGERATLSCRASQSVGSSYLAWYQQKPGKAPKLLIYGAFSRATGVPSRFSGSGSGTDFTLTISSLQPEDFATYYCQQDGSSPWTFGQGTKVEIK
– | – | – | – | – | 0.0502 | 0.0109 | 0.00591 | 0.537 | 0.223 | 0.462 | 0.0154 | 0.352 | 0.0546 | 0.615 | BA-087-05-19 (antibody, V domains shown, Detected with anti-human IgG and a molecular weight of 146 kDa was used in SPR, so it was tested as a whole IgG; also called BA-087-05-019; BA-087-05-19 (# 6972)) VH: EVQLVESGGGLVQPGGSLRLSCAASGFTFSHYTMHWVRQAPGKGLEWVSFISYDGNNKYYADSVKGRFTISRDNSKNTLYLQMNSLRAEDTAVYYCARTGWLGPFDYWGQGTLVTVSS VL: AIQLTQSPSSLSASVGDRVTITCRASQYVGSSYLAWYLQKPGQSPQLLIYGAFSRATGIPARFSGSGSGTEFTLTISSLQSEDFAVYYCQQDGSSPWTFGQGTKVEIK
